Measurements published in patent US20060160994A1.

Tests used:
[1] = target: low density lipoprotein receptor-related protein (LRP), purified and immobilized (UniProt Q07954); test: SPR, LRP immobilized (8.3 fmol/mm^2), analyte 100 nM, corrected for nonspecific binding
[2] = target: LRP exposed on the surface of mouse fibroblast (C127) cells (mouse (mouse fibroblast cells)) (UniProt Q91ZX7); test: cell-based or functional assay
LRP exposed on the surface of mouse fibroblast (C127) cells (mouse (mouse fibroblast cells)), sequence (Q91ZX7 20-4545): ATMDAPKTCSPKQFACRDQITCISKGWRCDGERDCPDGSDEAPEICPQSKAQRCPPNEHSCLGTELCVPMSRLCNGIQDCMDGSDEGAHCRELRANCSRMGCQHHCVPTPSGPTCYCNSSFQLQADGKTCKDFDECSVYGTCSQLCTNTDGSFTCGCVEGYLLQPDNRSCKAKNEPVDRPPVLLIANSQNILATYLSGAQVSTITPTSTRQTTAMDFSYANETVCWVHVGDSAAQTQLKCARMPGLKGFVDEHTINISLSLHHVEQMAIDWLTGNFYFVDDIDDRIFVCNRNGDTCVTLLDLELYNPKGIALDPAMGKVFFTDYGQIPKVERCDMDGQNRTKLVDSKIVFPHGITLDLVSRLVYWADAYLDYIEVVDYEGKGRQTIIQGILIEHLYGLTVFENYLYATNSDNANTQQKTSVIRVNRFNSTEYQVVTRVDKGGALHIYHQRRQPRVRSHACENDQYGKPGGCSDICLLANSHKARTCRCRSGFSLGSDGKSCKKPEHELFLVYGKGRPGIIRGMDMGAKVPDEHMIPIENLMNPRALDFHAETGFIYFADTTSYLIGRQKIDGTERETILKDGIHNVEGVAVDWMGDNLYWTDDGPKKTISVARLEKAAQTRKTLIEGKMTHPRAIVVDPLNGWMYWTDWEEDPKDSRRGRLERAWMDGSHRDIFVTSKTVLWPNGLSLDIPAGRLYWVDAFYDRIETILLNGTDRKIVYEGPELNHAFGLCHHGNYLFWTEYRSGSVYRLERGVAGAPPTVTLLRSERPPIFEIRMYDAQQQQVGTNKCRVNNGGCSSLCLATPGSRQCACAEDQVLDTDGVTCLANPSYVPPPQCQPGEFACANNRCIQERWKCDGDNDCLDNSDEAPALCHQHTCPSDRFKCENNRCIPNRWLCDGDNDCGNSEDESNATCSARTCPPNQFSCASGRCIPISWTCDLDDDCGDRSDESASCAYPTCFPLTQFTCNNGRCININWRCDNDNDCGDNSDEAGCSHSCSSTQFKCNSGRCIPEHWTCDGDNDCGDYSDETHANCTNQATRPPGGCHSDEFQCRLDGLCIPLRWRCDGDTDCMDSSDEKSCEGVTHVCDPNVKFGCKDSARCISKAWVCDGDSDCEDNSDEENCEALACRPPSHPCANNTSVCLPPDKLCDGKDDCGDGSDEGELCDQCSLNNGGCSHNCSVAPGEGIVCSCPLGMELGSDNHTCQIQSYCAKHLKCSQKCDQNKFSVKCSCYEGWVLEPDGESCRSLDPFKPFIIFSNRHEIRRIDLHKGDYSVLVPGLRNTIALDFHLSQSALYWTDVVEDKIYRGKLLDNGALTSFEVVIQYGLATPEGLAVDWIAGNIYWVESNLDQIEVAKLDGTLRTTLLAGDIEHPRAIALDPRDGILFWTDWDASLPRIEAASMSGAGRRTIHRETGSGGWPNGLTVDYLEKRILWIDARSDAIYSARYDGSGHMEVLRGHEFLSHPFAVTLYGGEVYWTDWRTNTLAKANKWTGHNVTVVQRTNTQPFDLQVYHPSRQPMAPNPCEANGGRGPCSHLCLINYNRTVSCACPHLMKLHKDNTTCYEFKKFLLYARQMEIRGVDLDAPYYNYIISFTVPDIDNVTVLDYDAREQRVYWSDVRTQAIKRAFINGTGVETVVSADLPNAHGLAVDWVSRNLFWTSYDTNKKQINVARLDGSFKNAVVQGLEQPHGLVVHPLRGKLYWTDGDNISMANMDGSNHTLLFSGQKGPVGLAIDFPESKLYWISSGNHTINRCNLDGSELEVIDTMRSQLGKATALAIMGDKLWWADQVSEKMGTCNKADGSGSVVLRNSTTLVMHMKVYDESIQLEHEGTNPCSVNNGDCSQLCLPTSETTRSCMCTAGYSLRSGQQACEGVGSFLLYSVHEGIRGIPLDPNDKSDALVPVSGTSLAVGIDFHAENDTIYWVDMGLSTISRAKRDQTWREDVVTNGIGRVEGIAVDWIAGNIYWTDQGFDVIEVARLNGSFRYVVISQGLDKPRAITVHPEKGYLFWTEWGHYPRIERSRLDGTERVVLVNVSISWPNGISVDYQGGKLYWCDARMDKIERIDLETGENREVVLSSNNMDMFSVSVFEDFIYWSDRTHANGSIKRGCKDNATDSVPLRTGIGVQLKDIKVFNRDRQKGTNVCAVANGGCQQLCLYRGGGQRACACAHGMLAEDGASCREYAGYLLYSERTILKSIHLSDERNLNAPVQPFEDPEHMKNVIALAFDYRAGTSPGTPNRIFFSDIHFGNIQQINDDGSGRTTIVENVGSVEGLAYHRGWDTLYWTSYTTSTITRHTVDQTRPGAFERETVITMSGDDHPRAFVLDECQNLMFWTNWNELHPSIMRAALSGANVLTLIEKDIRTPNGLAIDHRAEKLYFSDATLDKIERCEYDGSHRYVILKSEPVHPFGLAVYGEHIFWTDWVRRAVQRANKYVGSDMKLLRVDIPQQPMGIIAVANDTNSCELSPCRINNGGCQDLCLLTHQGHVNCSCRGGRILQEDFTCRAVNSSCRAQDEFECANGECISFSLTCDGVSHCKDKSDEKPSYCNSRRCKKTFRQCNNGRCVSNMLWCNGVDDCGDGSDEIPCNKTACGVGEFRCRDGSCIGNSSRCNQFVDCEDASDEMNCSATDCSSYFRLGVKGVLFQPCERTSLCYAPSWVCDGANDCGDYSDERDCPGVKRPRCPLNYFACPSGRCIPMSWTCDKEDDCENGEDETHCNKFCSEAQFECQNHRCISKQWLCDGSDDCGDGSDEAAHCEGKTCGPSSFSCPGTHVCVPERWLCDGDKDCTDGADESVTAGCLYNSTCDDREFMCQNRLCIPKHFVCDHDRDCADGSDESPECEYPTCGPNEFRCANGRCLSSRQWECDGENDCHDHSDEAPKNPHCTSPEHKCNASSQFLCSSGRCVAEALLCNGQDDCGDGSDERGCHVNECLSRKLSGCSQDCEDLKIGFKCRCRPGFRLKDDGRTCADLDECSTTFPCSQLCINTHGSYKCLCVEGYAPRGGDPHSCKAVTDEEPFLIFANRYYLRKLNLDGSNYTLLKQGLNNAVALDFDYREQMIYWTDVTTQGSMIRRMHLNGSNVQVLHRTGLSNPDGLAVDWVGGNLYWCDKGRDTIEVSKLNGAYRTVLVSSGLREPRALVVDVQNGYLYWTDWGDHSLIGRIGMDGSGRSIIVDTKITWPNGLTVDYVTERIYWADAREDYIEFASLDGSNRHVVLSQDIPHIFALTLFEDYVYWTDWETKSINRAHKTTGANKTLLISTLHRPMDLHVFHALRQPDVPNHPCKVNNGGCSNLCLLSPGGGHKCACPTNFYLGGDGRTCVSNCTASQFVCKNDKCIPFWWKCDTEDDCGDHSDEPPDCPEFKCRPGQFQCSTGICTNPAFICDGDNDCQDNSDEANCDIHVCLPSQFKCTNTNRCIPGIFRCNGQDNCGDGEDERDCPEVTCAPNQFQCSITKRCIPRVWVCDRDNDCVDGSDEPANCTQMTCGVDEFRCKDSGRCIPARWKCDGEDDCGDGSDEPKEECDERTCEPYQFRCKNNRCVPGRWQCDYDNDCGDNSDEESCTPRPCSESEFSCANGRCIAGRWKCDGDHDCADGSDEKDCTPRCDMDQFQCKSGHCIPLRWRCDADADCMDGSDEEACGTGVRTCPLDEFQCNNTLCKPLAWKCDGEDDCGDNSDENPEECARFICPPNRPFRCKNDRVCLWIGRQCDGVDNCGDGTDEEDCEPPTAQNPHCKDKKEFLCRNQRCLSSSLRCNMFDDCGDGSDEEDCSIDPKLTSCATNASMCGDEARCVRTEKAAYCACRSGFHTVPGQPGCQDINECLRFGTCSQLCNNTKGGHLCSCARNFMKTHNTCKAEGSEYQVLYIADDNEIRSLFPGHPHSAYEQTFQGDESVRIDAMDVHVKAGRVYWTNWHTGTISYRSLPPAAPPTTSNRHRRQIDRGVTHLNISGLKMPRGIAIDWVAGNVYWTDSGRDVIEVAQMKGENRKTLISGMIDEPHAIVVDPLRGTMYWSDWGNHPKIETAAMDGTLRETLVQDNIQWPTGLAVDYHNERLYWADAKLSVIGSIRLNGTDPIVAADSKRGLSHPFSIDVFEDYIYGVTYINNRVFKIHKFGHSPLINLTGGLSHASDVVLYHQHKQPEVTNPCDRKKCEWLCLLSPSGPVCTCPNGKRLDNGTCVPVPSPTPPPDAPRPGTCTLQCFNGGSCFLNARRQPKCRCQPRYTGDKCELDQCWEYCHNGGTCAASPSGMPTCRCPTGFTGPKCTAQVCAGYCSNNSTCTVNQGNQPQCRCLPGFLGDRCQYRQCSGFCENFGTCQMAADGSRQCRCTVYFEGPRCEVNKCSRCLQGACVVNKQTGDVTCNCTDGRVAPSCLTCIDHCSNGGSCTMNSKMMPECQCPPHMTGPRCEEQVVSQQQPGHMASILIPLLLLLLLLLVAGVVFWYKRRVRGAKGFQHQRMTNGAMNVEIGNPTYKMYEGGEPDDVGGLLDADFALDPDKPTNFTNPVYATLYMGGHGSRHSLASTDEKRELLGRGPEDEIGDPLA

| Substance | Binding (resonance units) (resonance units) [1] | Ratio +RAP/-RAP of Factor VIII expression (U/L) in medium of C127 cells, 2 h [2] | Ratio +RAP/-RAP of Factor VIII expression (U/L) in medium of C127 cells, 3 h [2] |
| --- | --- | --- | --- |
| Factor VIII, P00451 20-1667; P00451 1668-2351 | 262 | – | – |
| heavy chain of Factor VIII (from UniProt P00451 20-1667) | 0 | – | – |
| normal Factor VIII (produced by stably transfected mouse fibroblast C127 cells) (from UniProt P00451 20-2351) | – | 3.2 | 2.3 |
| thrombin-activated Factor VIII (from UniProt P00451 20-391; P00451 392-759; P00451 1709-2351) | 446 | – | – |
